Experiment [1] concerns the target T1, human GPC3 on HepG2 cells (human, UniProt P51654 25-554).
T1 construct: whole, on cells; Endogenous GPC3 of the tumor cell line; also called GPC3-positive tumor cell line HepG2; human GPC3-expressing HepG2 cells
As to the kind of experiment: flow cytometry on HepG2 cells (human GPC3), anti-NGAL detection, GeoMean BL1-H [Cont'd) C]. On the procedure:
GPC3-positive tumor cell line HepG2 was cultured in Dulbecco's Modified Eagle's Medium ([…], Pan Biotech) supplemented with 10% Fetal Calf Serum (Sigma-Aldrich) and in cell culture flasks according to manufacturer's instruction (37° C., 5% CO₂ atmosphere).
(§1) 5×10⁴ cells per well were incubated for 1 h in ice-cold PBS containing 5% fetal calf serum (PBS-FCS). A dilution series of the tested multimeric proteins (SEQ ID NOs: 38-44 and 46-55), the 4-1BB-targeting lipocalin mutein as included in the multimeric proteins (SEQ ID NO: 64) or the GPC3-targeting lipocalin SEQ ID NO: 90 were added to the cells and incubated for 1 h on ice. Cells were washed twice with PBS and then incubated with a rabbit anti-NGAL or a goat anti-human IgG labeled with fluorescent dye Alexa 488 for 30 min on ice. Human IgG4 isotype (SEQ ID NOs: 29 and 30) and lipocalin mutein SEQ ID NO: 8 were tested as a negative control. Cells were subsequently washed and analyzed using iQue Flow cytometer (Intellicyte Screener). Mean geometric fluorescent signals were plotted and fitted with Graphpad software using nonlinear regression (shared bottom, four parameters, variable slope).
On the technique in general: Flow cytometry measures light scatter and fluorescence of single cells or particles in a stream.

The target in experiment [2] is T2, hu4-1BB-Fc (R&D Systems) (human, UniProt Q07011 24-186).
T2 construct: Bought; also called human 4-1BB; not shown: human IgG Fc of the bought fusion
Nature of the experiment: SPR (Biacore 8K), hu4-1BB-Fc captured by anti-human IgG Fc; apparent value, 1:1 fit. As for the experimental part:
The anti-human IgG Fc antibody (GE Healthcare) was immobilized on a CM5 sensor chip using standard amine chemistry: the carboxyl groups on the chip were activated using 1-ethyl-3-(3-dimethylaminopropyl)-carbodiimide (EDC) and N-hydroxysuccinimide (NHS). Subsequently, anti-human IgG Fc antibody solution (GE Healthcare) at a concentration of 25 μg/mL in 10 mM sodium acetate (pH 5.0) was applied at a flow rate of 5 μL/min until an immobilization level of 4000-10000 resonance units (RU) was achieved. Residual non-reacted NHS-esters were blocked by passing a solution of 1 M ethanolamine across the surface. The reference channel was treated in an analogous manner. Subsequently, hu4-1BB-Fc (R&D Systems) at 0.3 μg/mL was captured by the anti-human IgG-Fc antibody at the chip surface for 180 s at a flow rate of 10 μL/min.
The binding assay was carried out with a contact time of 180 s, a dissociation time of 1200 s or 3000 s and a flow rate of 30 μL/min. All measurements were performed at 25° C. Lipocalin mutein SEQ ID NO: 64 as included in the multimeric proteins was also tested as […]. […] Prior to the protein measurements, three startup cycles were performed for conditioning purposes. Data were evaluated with Biacore Evaluation software. Double referencing was used and the 1:1 binding model was used to fit the raw data.
A general note: In SPR one partner is held on a chip, and binding of the other changes the refractive index at the surface.

The target of experiment [3] is T3, human 4-1BB on cells (human, UniProt Q07011 24-255).
T3 construct: whole, on cells; Stably transfected CHO cells (flow cytometry) and bought Jurkat reporter cells (bioassay); also called Flp-In-CHO::hu4-1BB; human 4-1BB-expressing CHO cells
T3 sequence (Q07011 24-255): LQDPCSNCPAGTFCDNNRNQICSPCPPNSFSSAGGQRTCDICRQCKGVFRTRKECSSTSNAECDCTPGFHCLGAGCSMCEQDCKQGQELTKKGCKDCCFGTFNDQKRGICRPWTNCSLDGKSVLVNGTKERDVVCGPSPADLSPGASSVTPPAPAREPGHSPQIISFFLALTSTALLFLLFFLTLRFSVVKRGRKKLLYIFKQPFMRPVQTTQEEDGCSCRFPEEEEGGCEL
Nature of the experiment: flow cytometry, Flp-In-CHO::hu4-1BB cells. As for the experimental part:
(§2) CHO cells were stably transfected with human 4-1BB, cynomolgus 4-1BB, or a mock control using the Flp-In system (Life Technologies) according to the manufacturer's instructions. Transfected CHO cells were maintained in Ham's F12 medium (Life Technologies) supplemented with 10% Fetal Calf Serum (Biochrom) and 500 μg/ml Hygromycin B (Roth). Cells were cultured in cell culture flasks according to manufacturer's instruction (37° C., 5% CO₂ atmosphere).
as §1

In experiment [4] the target is T4, cynomolgus 4-1BB on CHO cells (cynomolgus, UniProt A9YYE7 24-254).
T4 construct: also called Flp-In-CHO::cyno4-1BB; cynomolgus 4-1BB-expressing CHO cells
T4 sequence (A9YYE7 entry or part of it limits assumed): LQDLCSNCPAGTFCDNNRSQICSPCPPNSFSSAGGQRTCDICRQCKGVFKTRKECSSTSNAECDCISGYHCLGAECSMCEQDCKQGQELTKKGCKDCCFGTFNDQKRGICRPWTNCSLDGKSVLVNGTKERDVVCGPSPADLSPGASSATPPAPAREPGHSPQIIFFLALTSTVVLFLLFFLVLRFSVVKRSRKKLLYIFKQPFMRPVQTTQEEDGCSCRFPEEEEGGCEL
Nature of the experiment: flow cytometry, Flp-In-CHO::cyno4-1BB cells. On the procedure: as §2, §1

Experiment [5] addresses T5, recombinant hu4-1BB-His (human 4-1BB with a C-terminal polyhistidine tag, R&D Systems) (human, UniProt Q07011 24-186).
T5 construct: Bought; not shown: C-terminal polyhistidine tag
As to the kind of experiment: ELISA, hu4-1BB-His coated, detection anti-NGAL-HRP. As for the experimental part:
Recombinant hu4-1BB-His (human 4-1BB with a C-terminal polyhistidine tag, R&D Systems) at the concentration of 1 μg/mL in PBS was coated overnight on microtiter plates at 4° C. After washing with PBS-0.05% T (PBS supplemented with 0.05% (v/v) Tween 20), the plates were blocked with 2% BSA (w/v) in PBS-0.1% T (PBS supplemented with 0.1% (v/v) Tween 20) for 1 h at room temperature. After washing with 100 μL PBS-0.05% T five times, exemplary multimeric proteins (SEQ ID NOs: 38-44 and 46-53) or 4-1BB-specific lipocalin mutein as included in the multimeric protein (SEQ ID NO: 64) at different concentrations, ranging from 100 to 0.002 nM, were added to the wells and incubated for 1 h at room temperature, followed by another wash step. Bound molecules under study were detected by incubation with 1:1000 diluted anti-NGAL-HRP in PBS-0.1% T-2% BSA. After an additional wash step, fluorogenic HRP substrate (QuantaBlu, Thermo) was added to each well and the fluorescence intensity was detected using a fluorescence microplate reader.
The results of exemplary experiments are depicted in FIG. 2, together with the fit curves resulting from a 1:1 binding sigmoidal fit, where the EC₅₀ value and the maximum signal were free parameters, and the slope was fixed to one. The observed EC₅₀ values toward the hu4-1BB of all tested multimeric proteins were in the sub nanomolar range.
(In general: An ELISA detects its analyte on a solid surface through an enzyme-linked reagent.)

The target in experiment [6] is T3, human 4-1BB on cells. Nature of the experiment: flow cytometry, Flp-In-CHO::hu4-1BB cells. On the procedure:
as §1
(§3) Target-specific binding of hexavalent trimeric proteins to human 4-1BB-, OX40- or PD-L1-expressing cells was assessed by flow cytometry as described in Example 5, using CHO cells stably transfected with human 4-1BB, human OX40 or human PD-L1 (Flp-In system; Life Technologies).
The source holds these as a separate data set.

Experiment [7] has as its target T6, human OX40 on cells (human, UniProt P43489 29-277).
T6 construct: whole, on cells; Stably transfected CHO cells (flow cytometry) and bought Jurkat reporter cells (OX40 bioassay); also called Flp-In-CHO::huOX40; human OX40-expressing CHO cells
T6 sequence (looked up): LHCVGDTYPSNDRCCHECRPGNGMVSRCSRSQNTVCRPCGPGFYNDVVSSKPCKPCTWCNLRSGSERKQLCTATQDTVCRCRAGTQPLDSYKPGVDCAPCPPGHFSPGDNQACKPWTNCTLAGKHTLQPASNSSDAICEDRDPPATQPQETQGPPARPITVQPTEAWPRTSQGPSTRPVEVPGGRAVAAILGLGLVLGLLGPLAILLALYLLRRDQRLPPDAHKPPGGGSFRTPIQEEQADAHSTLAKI
As to the kind of experiment: flow cytometry, Flp-In-CHO::huOX40 cells. On the procedure: as §1, §3

The target in experiment [8] is T3, human 4-1BB on cells. As to the kind of experiment: flow cytometry on Flp-In-CHO::huCD137 (human 4-1BB) cells, anti-NGAL detection, GeoMean BL1-H. As for the experimental part: as §2, §1
The target in experiment [9] is T4, cynomolgus 4-1BB on CHO cells. Nature of the experiment: flow cytometry on Flp-In-CHO::cyCD137 (cynomolgus 4-1BB) cells, anti-NGAL detection, GeoMean BL1-H [Cont'd) B]. As for the experimental part: as §2, §1

Where two headings read alike, the source gives them in different places.

Usually koff stands for the rate constant with which the complex falls apart. One may read the kon as the rate constant with which the complex forms. For orientation: EC50 means the concentration giving half of the maximal effect. One may read the EC50 (read off the curve) as the concentration needed to bring the measured effect to its halfway point. Read a low EC50 (read off the curve) as an effect from little substance.

T1 sequence (P51654 25-554 limits assumed): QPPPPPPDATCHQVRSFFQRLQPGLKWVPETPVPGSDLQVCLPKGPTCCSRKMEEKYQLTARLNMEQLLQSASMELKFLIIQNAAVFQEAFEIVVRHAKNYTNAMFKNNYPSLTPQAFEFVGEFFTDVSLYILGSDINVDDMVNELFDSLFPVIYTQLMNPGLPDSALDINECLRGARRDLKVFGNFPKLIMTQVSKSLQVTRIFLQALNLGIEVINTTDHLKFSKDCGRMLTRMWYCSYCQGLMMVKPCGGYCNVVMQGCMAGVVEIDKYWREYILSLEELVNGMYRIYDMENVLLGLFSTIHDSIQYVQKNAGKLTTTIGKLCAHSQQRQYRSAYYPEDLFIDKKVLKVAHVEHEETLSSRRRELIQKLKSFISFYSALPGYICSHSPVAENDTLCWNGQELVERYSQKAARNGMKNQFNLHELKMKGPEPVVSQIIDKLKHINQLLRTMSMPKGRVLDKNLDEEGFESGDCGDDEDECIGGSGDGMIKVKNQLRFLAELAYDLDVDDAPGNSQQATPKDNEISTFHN

B1: 4-1BB-specific lipocalin mutein SEQ ID NO: 64 (designed binder)
chain: QDSTSDLIPAPPLSKVPLQQNFQDNQFHGKWYVVGQAGNIRLREDKDPIKMMATIYELKEDKSYDVTMVKFDDKKCMYDIWTFVPGSQPGEFTLGKIKSFPGHTSSLVRVVSTNYNQHAMVFFKFVFQNREEFYITLYGRTKELTSELKENFIRFSKSLGLPENHIVFPVPIDQCIDG
notes: Monomeric hNGAL mutein; also called 4-1BB-targeting lipocalin mutein as included in the multimeric proteins
Take B1: in experiment [1], the binding result was “no binding (tested: about 200 nM)”. Besides, in experiment [2], the Kd amounted to 0.76 nM, the koff turned out to be 7.08e-05 s⁻¹ and the kon amounted to 92700 M⁻¹ s⁻¹. In [3], a half-maximal response (EC50) required 3.99 nM. Also, the binding result in experiment [4] is given as “no binding”. Also, the concentration for a half-maximal effect (EC50) in experiment [5] stood at 0.41 nM.

B2: bispecific hexavalent trimeric protein SEQ ID NO: 165 (designed binder)
chain: QDSTSDLIPAPPLSKVPLQQNFQDNQFHGKWYVVGQAGNIRLREDKDPIKMMATIYELKEDKSYDVTMVKFDDKKCMYDIWTFVPGSQPGEFTLGKIKSFPGHTSSLVRVVSTNYNQHAMVFFKFVFQNREEFYITLYGRTKELTSELKENFIRFSKSLGLPENHIVFPVPIDQCIDGGGGGSGGGGSGGGGSQDSTSDLIPAPPLSKVPLQQNFQDSQFQGKWYVVGFAGNYRLREDKDPGKMQATIYELREDKAYQVTGVLFPHKKCHDDIVIFVPGSQPGEFILGWIKSDPGITSDLVRVVSTDYNQHAMVFFKWVFQNREWFYITLYGRTKALTSELKENFIRFSKSLGLPEDHIVFPVPIDQCIDGGGGGSGGGGSGGGGSGVRLWATRQAMLGQVHEVPEGWLIFVAEQEELYVRVQNGFRKVQLEARTPLGGSGGAPEQKLISEEDLGSHHHHHHHHHH
Turning to B2, the EC50 stood at 2.19 nM in [6] and 0.18 nM in experiment [7].

B3: bispecific hexavalent trimeric protein SEQ ID NO: 166 (designed binder)
chain: QDSTSDLIPAPPLSKVPLQQNFQDSQFQGKWYVVGFAGNYRLREDKDPGKMQATIYELREDKAYQVTGVLFPHKKCHDDIVIFVPGSQPGEFILGWIKSDPGITSDLVRVVSTDYNQHAMVFFKWVFQNREWFYITLYGRTKALTSELKENFIRFSKSLGLPEDHIVFPVPIDQCIDGGGGGSGGGGSGGGGSQDSTSDLIPAPPLSKVPLQQNFQDNQFHGKWYVVGQAGNIRLREDKDPIKMMATIYELKEDKSYDVTMVKFDDKKCMYDIWTFVPGSQPGEFTLGKIKSFPGHTSSLVRVVSTNYNQHAMVFFKFVFQNREEFYITLYGRTKELTSELKENFIRFSKSLGLPENHIVFPVPIDQCIDGGGGGSGGGGSGGGGSGVRLWATRQAMLGQVHEVPEGWLIFVAEQEELYVRVQNGFRKVQLEARTPLGGSGGAPEQKLISEEDLGSHHHHHHHHHH
As to B3, the EC50 in [6] amounted to 4.51 nM; in [7] it was 0.56 nM.

B4: multimeric protein SEQ ID NO: 40 (designed binder)
chain: QDSTSDLIPAPPLSKVPLQQNFQDNQFHGKWYVVGQAGNIRLREDKDPIKMMATIYELKEDKSYDVTMVKFDDKKCMYDIWTFVPGSQPGEFTLGKIKSFPGHTSSLVRVVSTNYNQHAMVFFKFVFQNREEFYITLYGRTKELTSELKENFIRFSKSLGLPENHIVFPVPIDQCIDGGGGGSGGGGSGGGGSGGGGSGGGGSGVRLWATRQAMLGQVHEVPEGWLIFVAEQEELYVRVQNGFRKVQLEARTPLGGSGGAPEQKLISEEDLGSHHHHHHHHHH
For B4, in experiment [2], the Kd was found to be 1.18 nM, the koff was 9.75e-05 s⁻¹ and the kon worked out at 82300 M⁻¹ s⁻¹. The “EC50 (read off the curve)” value in [8] was approximately 2 nM. Besides, in experiment [9], the “EC50 (read off the curve)” value is approximately 1 nM. In addition, in experiment [5], the EC50 amounted to 0.18 nM.

B5: bispecific hexavalent trimeric protein SEQ ID NO: 164 (designed binder)
chain: QDSTSDLIPAPPLSKVPLQQNFQDNQFHGKWYVVGQAGNIRLREDKDPIKMMATIYELKEDKSYDVTMVKFDDKKCMYDIWTFVPGSQPGEFTLGKIKSFPGHTSSLVRVVSTNYNQHAMVFFKFVFQNREEFYITLYGRTKELTSELKENFIRFSKSLGLPENHIVFPVPIDQCIDGGGGGSGGGGSGGGGSGVRLWATRQAMLGQVHEVPEGWLIFVAEQEELYVRVQNGFRKVQLEARTPLGGGGSGGGGSGGGGSQDSTSDLIPAPPLSKVPLQQNFQDSQFQGKWYVVGFAGNYRLREDKDPGKMQATIYELREDKAYQVTGVLFPHKKCHDDIVIFVPGSQPGEFILGWIKSDPGITSDLVRVVSTDYNQHAMVFFKWVFQNREWFYITLYGRTKALTSELKENFIRFSKSLGLPEDHIVFPVPIDQCIDGGGSGGAPEQKLISEEDLGSHHHHHHHHHH
Turning to B5, the figures for the EC50 in [6] and in [7] were 3.03 nM and 0.71 nM, respectively.

Source of the values: patent US20230227568A1 (Pieris, published 2023).
